Literature values, collected in paper PMC7970000.
Like-named read-outs stand apart in the source and are kept apart here. Blank lines part the entries; values can stand above or below the substance they belong to.

How the values were obtained:
[1] = target: SNX3-retromer complex (Homo sapiens) (UniProt O60493)
VPS29 (Homo sapiens) [2] = target: VPS29 (Homo sapiens) (UniProt Q9UBQ0)
retromer (Homo sapiens) = retromer (Homo sapiens) (UniProt O75436)
VPS29 (Homo sapiens) [3] = target: VPS29 (Homo sapiens) (UniProt Q9UBQ0); remark: listed apart in the source

UniProt O75436, sequence (O75436 whole entry): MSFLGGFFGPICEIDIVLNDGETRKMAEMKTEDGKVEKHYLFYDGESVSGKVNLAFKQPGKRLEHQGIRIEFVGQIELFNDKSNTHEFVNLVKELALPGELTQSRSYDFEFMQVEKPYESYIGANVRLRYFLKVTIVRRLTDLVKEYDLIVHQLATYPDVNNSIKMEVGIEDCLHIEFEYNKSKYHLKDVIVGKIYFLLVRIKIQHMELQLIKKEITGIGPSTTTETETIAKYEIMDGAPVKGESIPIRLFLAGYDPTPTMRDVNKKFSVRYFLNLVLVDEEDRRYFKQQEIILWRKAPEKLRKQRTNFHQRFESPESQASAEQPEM
UniProt O60493, sequence (O60493 2-162, chain 1 of 2): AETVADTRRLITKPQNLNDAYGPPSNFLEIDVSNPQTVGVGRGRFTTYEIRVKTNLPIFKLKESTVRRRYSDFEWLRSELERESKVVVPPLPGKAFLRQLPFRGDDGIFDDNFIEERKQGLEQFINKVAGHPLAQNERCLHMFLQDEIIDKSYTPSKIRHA
UniProt O60493, sequence (O75436 whole entry, chain 2 of 2, further chain): as the sequence (O75436 whole entry) above

- Kd [1]: 127 µM
Substance: DMT1-II (from UniProt P49281)

- Kd (VPS29 (Homo sapiens) [2]): 20 µM
- Kd (retromer (Homo sapiens)): 0.335 µM
Substance: TBC1D5 (from UniProt Q92609)

- Kd (VPS29 (Homo sapiens) [3]): 3.5 µM
Substance: VARP CHPLCxCxxC motif (from UniProt Q96NW4)
